Target: T1, HLA-A*0201 molecules on TAP-deficient T2 cells (human)
T1 construct: Peptide-receptive class I molecule on T2 cells; also called HLA-A2.1; HLA-A2
Test: T2 cell HLA-A*0201 stabilisation, 100 uM peptide, flow cytometry with mAb BB7.2; mean of 4 experiments ± SEM
Protocol: T2 cells were incubated with 100 μM of peptide in serum-free RPMI 1640 supplemented with 5 μg/ml of human β₂m (Fluka, Buchs, Germany) for 18 hrs at 37° C.

B1: ALK peptide p621-629 (SLTANMKEV) (peptide)
peptide: SLTANMKEV
notes: C-terminal portion of the protein; also called p621-29
FI (Fluorescence Index): 3.5 ratio (sample / irrelevant-peptide control)

Source: patent US20030157101A1, “Immunogenic ALK peptides” (priority 2001, published 2003)
